Sequences and labels used below:
B1: KLHL14 (parent)
chain: WLYCYDPVMDVWARKQDMNTKRAI

Among the data in the supplement of paper PMC10567573 are protein stability index values, retold here.
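Further: lentivirally expressed fusions sorted by FACS into six bins by GFP to DsRed ratio, PSI derived from sequencing read proportions per bin multiplied by bin number.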

Variants of B1 are the subject of this series. Briefly: protein stability index of a GFP-peptide fusion (GPS, HEK-293T) (PSI 1-6); higher = more stable. The conditions noted are these: c terminus: a fixed tail appended.
As to WLYCYDPVMDVWARKQDCNTKRAI [M18C], the protein stability index amounted to 1.86.
As to WLYCYDPVMDVWARKQDANTKRAI [M18A], the protein stability index turned out to be 2.15.
Consider WLYCYDPVMDPWARKQDMNTKRAI [V11P], for which the protein stability index amounted to 1.65.
The result for WLYCYDPVMDSWARKQDMNTKRAI [V11S] reads 2.52; that for WLYCYDPVMDIWARKQDMNTKRAI [V11I], 1.43; that for WLYCYDPVMDCWARKQDMNTKRAI [V11C], 1.91.
With WLYCYDPVMDMWARKQDMNTKRAI [V11M], the protein stability index worked out at 1.61.
In the case of WLYCYDPVMDQWARKQDMNTKRAI [V11Q] it was 1.98; in that of WLYCYDPVMDRWARKQDMNTKRAI [V11R], 2.1; in that of WLYCYDPVMDFWARKQDMNTKRAI [V11F], 2.32.
On to WLYCYDPVMDKWARKQDMNTKRAI [V11K], for which the protein stability index was found to be 1.95.
Consider WLYCYDPVMDHWARKQDMNTKRAI [V11H], for which the protein stability index is 1.61.
In the case of WLYCYDPVMDYWARKQDMNTKRAI [V11Y], the protein stability index was determined as 1.92.
The result for WLYCYDPVMDGWARKQDMNTKRAI [V11G] reads 1.62; that for WLYCYDPVMDAWARKQDMNTKRAI [V11A], 1.93.
In the case of WLYCYDPVMDTWARKQDMNTKRAI [V11T] it was 2.32; in that of WLYCYDPVMDDWARKQDMNTKRAI [V11D], 1.98; in that of WLYCYDPVMDWWARKQDMNTKRAI [V11W], 1.76.
In the case of WLYCYDPVMDLWARKQDMNTKRAI [V11L] it was 2.04; in that of WLYCYDPVMDNWARKQDMNTKRAI [V11N], 2.21; in that of WLYCYDPVMDEWARKQDMNTKRAI [V11E], 2.3.
For WLYCYDPVMDVWARKQAMNTKRAI [D17A], the protein stability index turned out to be 2.33.
In the case of WLYCYDPVMDVWARKQVMNTKRAI [D17V], the protein stability index came to 2.06.
The result for WLYCYDPVMDVWARKQGMNTKRAI [D17G] reads 1.97; that for WLYCYDPVMDVWARKQLMNTKRAI [D17L], 2.48; that for WLYCYDPVMDVWARKQHMNTKRAI [D17H], 2.21.
As for WLYCYDPVMDVWARKQSMNTKRAI [D17S], the protein stability index worked out at 2.38.
For the variant WLYCYDPVMDVWARKQNMNTKRAI [D17N], the protein stability index is 1.91.
In the case of WLYCYDPVMDVWARKQKMNTKRAI [D17K] it was 1.65; in that of WLYCYDPVMDVWARKQIMNTKRAI [D17I], 1.94.
The result for WLYCYDPVMDVWARKQMMNTKRAI [D17M] reads 2.2; that for WLYCYDPVMDVWARKQWMNTKRAI [D17W], 2.58.
The result for WLYCYDPVMDVWARKQTMNTKRAI [D17T] reads 1.78; that for WLYCYDPVMDVWARKQRMNTKRAI [D17R], 2.34.
Consider WLYCYDPVMDVWARKQPMNTKRAI [D17P], for which the protein stability index came to 2.16.
In the case of WLYCYDPVMDVWARKQCMNTKRAI [D17C] it was 1.74.
The result for WLYCYDPVMDVWARKQQMNTKRAI [D17Q] reads 2.06; that for WLYCYDPVMDVWARKQEMNTKRAI [D17E], 1.8.
In the case of WLYCYDPVMDVWARKQFMNTKRAI [D17F] it was 2.24; in that of WLYCYDPVMDVWARKQYMNTKRAI [D17Y], 1.67.
For WLYCYDPVMDVWAEKQDMNTKRAI [R14E], the protein stability index turned out to be 2.13.
With WLYCYDPVMDVWASKQDMNTKRAI [R14S], the protein stability index was 1.88.
In the case of WLYCYDPVMDVWAIKQDMNTKRAI [R14I] it was 1.84; in that of WLYCYDPVMDVWAKKQDMNTKRAI [R14K], 1.9.
With WLYCYDPVMDVWANKQDMNTKRAI [R14N], the protein stability index stood at 1.77.
The result for WLYCYDPVMDVWAFKQDMNTKRAI [R14F] reads 1.57; that for WLYCYDPVMDVWALKQDMNTKRAI [R14L], 2.36.
In the case of WLYCYDPVMDVWACKQDMNTKRAI [R14C] it was 1.75.
In the case of WLYCYDPVMDVWAQKQDMNTKRAI [R14Q] it was 2.45.
As for WLYCYDPVMDVWAGKQDMNTKRAI [R14G], the protein stability index stood at 1.81.
In the case of WLYCYDPVMDVWADKQDMNTKRAI [R14D] it was 2.11.
The result for WLYCYDPVMDVWATKQDMNTKRAI [R14T] reads 1.54.
As to WLYCYDPVMDVWAYKQDMNTKRAI [R14Y], the protein stability index stood at 1.81.
In the case of WLYCYDPVMDVWAAKQDMNTKRAI [R14A] it was 1.85.
The result for WLYCYDPVMDVWAHKQDMNTKRAI [R14H] reads 1.97.
In the case of WLYCYDPVMDVWAMKQDMNTKRAI [R14M] it was 1.93; in that of WLYCYDPVMDVWAVKQDMNTKRAI [R14V], 2.62.
Take WLYCYDPVMDVWAWKQDMNTKRAI [R14W]: the protein stability index was found to be 1.85.
The result for WLYCYDPVMDVWAPKQDMNTKRAI [R14P] reads 2.23.
The result for WLYCYDPVMDVGARKQDMNTKRAI [W12G] reads 2.1; that for WLYCYDPVMDVMARKQDMNTKRAI [W12M], 1.77; that for WLYCYDPVMDVFARKQDMNTKRAI [W12F], 1.86.
As for WLYCYDPVMDVDARKQDMNTKRAI [W12D], the protein stability index is 2.23.
In the case of WLYCYDPVMDVVARKQDMNTKRAI [W12V] it was 1.95; in that of WLYCYDPVMDVCARKQDMNTKRAI [W12C], 2.09; in that of WLYCYDPVMDVAARKQDMNTKRAI [W12A], 1.89.
As to WLYCYDPVMDVHARKQDMNTKRAI [W12H], the protein stability index worked out at 2.04.
The result for WLYCYDPVMDVLARKQDMNTKRAI [W12L] reads 2.07; that for WLYCYDPVMDVEARKQDMNTKRAI [W12E], 2.06.
Take WLYCYDPVMDVTARKQDMNTKRAI [W12T]: the protein stability index came out at 2.11.
In the case of WLYCYDPVMDVKARKQDMNTKRAI [W12K], the protein stability index was determined as 2.03.
In the case of WLYCYDPVMDVNARKQDMNTKRAI [W12N] it was 2.2; in that of WLYCYDPVMDVRARKQDMNTKRAI [W12R], 1.78.
The result for WLYCYDPVMDVQARKQDMNTKRAI [W12Q] reads 1.92; that for WLYCYDPVMDVIARKQDMNTKRAI [W12I], 1.47; that for WLYCYDPVMDVYARKQDMNTKRAI [W12Y], 2.09.
In the case of WLYCYDPVMDVPARKQDMNTKRAI [W12P] it was 1.76; in that of WLYCYDPVMDVSARKQDMNTKRAI [W12S], 1.5; in that of WLYCYDPGMDVWARKQDMNTKRAI [V8G], 1.58.
On to WLYCYDPWMDVWARKQDMNTKRAI [V8W], for which the protein stability index stood at 1.95.
In the case of WLYCYDPRMDVWARKQDMNTKRAI [V8R] it was 1.92; in that of WLYCYDPMMDVWARKQDMNTKRAI [V8M], 2.26.
The result for WLYCYDPLMDVWARKQDMNTKRAI [V8L] reads 2.25; that for WLYCYDPFMDVWARKQDMNTKRAI [V8F], 2.18; that for WLYCYDPIMDVWARKQDMNTKRAI [V8I], 2.03.
Turning to WLYCYDPYMDVWARKQDMNTKRAI [V8Y], the protein stability index worked out at 2.14.
The result for WLYCYDPKMDVWARKQDMNTKRAI [V8K] reads 1.88; that for WLYCYDPTMDVWARKQDMNTKRAI [V8T], 2.45; that for WLYCYDPPMDVWARKQDMNTKRAI [V8P], 1.8.
The result for WLYCYDPSMDVWARKQDMNTKRAI [V8S] reads 1.89.
In the case of WLYCYDPQMDVWARKQDMNTKRAI [V8Q] it was 1.78; in that of WLYCYDPNMDVWARKQDMNTKRAI [V8N], 1.75.
For WLYCYDPHMDVWARKQDMNTKRAI [V8H], the protein stability index was 2.34.
In the case of WLYCYDPVMDVWARPQDMNTKRAI [K15P] it was 1.64.
